Measurements reported in the supplement of paper PMC10126150.
± gives the standard deviation of the averaged measurements.

Test system: ATP
Assay: switch fluorescence ratio, 500 uM ATP over buffer (Cy3 cluster intensity, sum of 5 cycles each) (fold (ratio)); higher = stronger signal-on switching upon ATP binding; sequences stand for … in TCGTCGGCAGCGTCAGATGTGTATAAGAGACAGTTTTTTTTTTTTTTTTTTTTTTTTT…TC
Conditions: aptamer strand: ATP DNA aptamer (quencher-CACCTGGGGGAGTATTGCGGAGGAAGG + anchor), 100 nM annealed; ATP concentration: 500 uM
In short: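 The fluorescence ratio divides summed target-cycle Cy3 intensity by summed buffer-cycle Cy3 intensity for each cluster and is averaged per switch-domain sequence. Cy3-labelled switching-strand clusters on a modified Illumina MiSeq flow-cell were annealed to 100 nM quencher-labelled ATP aptamer, then imaged in selection buffer and again after 15 min with 500 uM ATP at 22 °C. Five such cycles were run, with NaOH stripping and re-annealing between them, and clusters outside 100-1000 RFU were excluded.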
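Also: ATP exposure 15 min at 22 °C before imaging.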

Row | Sequence | switch fluorescence ratio
1 | GAATGGTCGC | 0.963 ± 0.026
2 | GAATGTAGTC | 1.01 ± 0.013
3 | GAATGTGGGT | 0.994 ± 0.013
4 | GAATGTTAAT | 1.04 ± 0.027
5 | GAATTAAATA | 1.02 ± 0.018
6 | GAATTAGCAC | 1.05 ± 0.038
7 | GAATTATTGT | 0.959 ± 0.022
8 | GAATTATTTT | 1.12 ± 0.16
9 | GAATTCACGG | 1.06 ± 0.038
10 | GAATTGGATC | 1.02 ± 0.019
11 | GAATTGGGCT | 0.9679 ± 0.0032
12 | GAATTGGGGA | 1.01 ± 0.029
13 | GAATTGGTAA | 1.013 ± 0.0076
14 | GAATTTAGTC | 1.06 ± 0.077
15 | GAATTTCGAT | 0.976 ± 0.011
16 | GAATTTGGGG | 0.961 ± 0.03
17 | GAATTTTAGG | 0.9889 ± 0.0096
18 | GAATTTTTGG | 0.997 ± 0.017
19 | GAATTTTTGT | 0.956 ± 0.018
20 | GAATTTTTTA | 0.999 ± 0.018
21 | GACACAGTGT | 0.98 ± 0.026
22 | GACACGTGTT | 1.03 ± 0.045
23 | GACACTATTG | 0.999 ± 0.016
24 | GACACTGCCC | 1.13 ± 0.048
25 | GACAGAAGTG | 1.02 ± 0.019

Row | Sequence | switch fluorescence ratio
26 | GACAGCAGGT | 1.07 ± 0.011
27 | GACAGCGGGT | 1.01 ± 0.015
28 | GACAGGGCGG | 0.983 ± 0.049
29 | GACAGGGGTT | 1.04 ± 0.015
30 | GACAGGGTTA | 1.001 ± 0.0086
31 | GACAGGTATC | 1.01 ± 0.057
32 | GACAGTGTGG | 0.997 ± 0.049
33 | GACAGTTGGG | 0.999 ± 0.017
34 | GACATAAAAA | 0.986 ± 0.076
35 | GACATAAGTT | 1 ± 0.044
36 | GACATATTAT | 1.013 ± 0.0057
37 | GACATCCCCT | 1.04 ± 0.047
38 | GACATGAAGG | 1 ± 0.015
39 | GACATGGCAG | 1.02 ± 0.04
40 | GACATGGCGG | 1.01 ± 0.024
41 | GACATGGGGA | 1.06 ± 0.015
42 | GACATGGGTG | 1.02 ± 0.031
43 | GACATTAGTC | 0.99 ± 0.011
44 | GACATTTCTT | 1.01 ± 0.011
45 | GACATTTTTA | 0.975 ± 0.022
46 | GACCCAGGTA | 2.75 ± 0.18
47 | GACCCGCTAA | 4.18 ± 0.3
48 | GACCGAGTTC | 1.005 ± 0.0024
49 | GACCGGATTC | 1.06 ± 0.11
50 | GACCGGGAGC | 0.995 ± 0.011

Row | Sequence | switch fluorescence ratio
51 | GACCGGGCTC | 0.97643 ± 0.00079
52 | GACCTCGGGA | 1.024 ± 0.0028
53 | GACCTGAGCA | 1.113 ± 0.0034
54 | GACCTTAATG | 1.05 ± 0.013
55 | GACCTTTAAA | 1.02 ± 0.011
56 | GACGAAGCAT | 5.33 ± 0.82
57 | GACGACGGAG | 0.969 ± 0.034
58 | GACGAGGAGG | 1 ± 0.017
59 | GACGAGTGTG | 0.98731 ± 0.00011
60 | GACGATAGAT | 1.048 ± 0.00083
61 | GACGATATGT | 1.07 ± 0.041
62 | GACGATGCGG | 1.196 ± 0.0058
63 | GACGATGTCT | 1.0078 ± 0.00071
64 | GACGCATTTT | 2.18 ± 0.17
65 | GACGCGTTTA | 1.07 ± 0.034
66 | GACGCTCAGC | 1.39 ± 0.019
67 | GACGGCTGGT | 1.01 ± 0.021
68 | GACGGGATTT | 1.03 ± 0.03
69 | GACGGTAGGG | 0.969 ± 0.051
70 | GACGGTTAAA | 1.12 ± 0.11
71 | GACGGTTATC | 1.11 ± 0.059
72 | GACGGTTATT | 1.002 ± 0.0036
73 | GACGGTTCGT | 1.01 ± 0.022
74 | GACGTATCAA | 1.04 ± 0.025
75 | GACGTATCGT | 0.989 ± 0.032

Row | Sequence | switch fluorescence ratio
76 | GACGTATTGC | 1.27 ± 0.061
77 | GACGTCAGCG | 1.05 ± 0.059
78 | GACGTTATGT | 1 ± 0.019
79 | GACGTTGTGG | 1.03 ± 0.014
80 | GACGTTTATG | 0.949 ± 0.099
81 | GACTAAAGTG | 1.01 ± 0.044
82 | GACTAAATGA | 1.01 ± 0.016
83 | GACTAATAGG | 0.992 ± 0.012
84 | GACTACCCCT | 1.234 ± 0.011
85 | GACTACTGCA | 1.13 ± 0.046
86 | GACTAGGTCG | 1.16 ± 0.22
87 | GACTAGTGAC | 1.01 ± 0.021
88 | GACTATTAGA | 0.9918 ± 0.0057
89 | GACTATTGTT | 1 ± 0.015
90 | GACTGAGAAG | 0.945 ± 0.011
91 | GACTGAGAGA | 1.024 ± 0.0035
92 | GACTGAGGTA | 0.99 ± 0.031
93 | GACTGCAGGT | 1.01 ± 0.033
94 | GACTGCGGGG | 0.987 ± 0.038
95 | GACTGCTACT | 1.51 ± 0.028
96 | GACTGGGCGA | 1.02 ± 0.029
97 | GACTGGGGAT | 0.995 ± 0.025
98 | GACTGGTATT | 0.991 ± 0.019
99 | GACTGGTTGG | 1.02 ± 0.029
100 | GACTGGTTTT | 1.01 ± 0.033

Row | Sequence | switch fluorescence ratio
101 | GACTGTAAAG | 0.967 ± 0.089
102 | GACTGTTCCG | 0.958 ± 0.0055
103 | GACTTAAGGC | 1.005 ± 0.0011
104 | GACTTAGTGC | 1.05 ± 0.012
105 | GACTTAGTGG | 1.03 ± 0.077
106 | GACTTAGTTG | 0.987 ± 0.0068
107 | GACTTCGGGA | 1.13 ± 0.052
108 | GACTTGGGCG | 0.957 ± 0.084
109 | GACTTGTAGG | 0.9844 ± 0.0049
110 | GACTTTGGGC | 1.01 ± 0.038
111 | GACTTTTCGA | 1 ± 0.04
112 | GAGAAAATAT | 1 ± 0.038
113 | GAGAAAATCT | 1.01 ± 0.033
114 | GAGAAAGTTC | 1.06 ± 0.038
115 | GAGAAATTAT | 0.9772 ± 0.0067
116 | GAGAAGAGGG | 1.04 ± 0.042
117 | GAGAATAATA | 0.988 ± 0.032
118 | GAGAATCGTC | 1.05 ± 0.064
119 | GAGACTAGAT | 1.01 ± 0.017
120 | GAGAGAATAG | 1.03 ± 0.034
121 | GAGAGAATTT | 1 ± 0.02
122 | GAGAGAGGCT | 0.9988 ± 0.0071
123 | GAGAGAGGGC | 0.966 ± 0.073
124 | GAGAGAGGGG | 0.984 ± 0.026
125 | GAGAGAGTGG | 0.976 ± 0.032

Row | Sequence | switch fluorescence ratio
126 | GAGAGATTGT | 1.005 ± 0.0086
127 | GAGAGCAAAT | 1.09 ± 0.048
128 | GAGAGCCACC | 0.971 ± 0.061
129 | GAGAGCCGTT | 1 ± 0.017
130 | GAGAGCTGCG | 1 ± 0.039
131 | GAGAGGATAG | 0.98157 ± 0.0003
132 | GAGAGGGATG | 1.01 ± 0.043
133 | GAGAGGGTGT | 1.05 ± 0.081
134 | GAGAGGTGGG | 1.01 ± 0.024
135 | GAGAGGTGTT | 1.06 ± 0.039
136 | GAGAGTACTT | 0.9945 ± 0.0093
137 | GAGAGTCATC | 1.035 ± 0.0087
138 | GAGATAAGGG | 0.961 ± 0.061
139 | GAGATAGCTT | 0.955 ± 0.043
140 | GAGATAGGGA | 1.01 ± 0.029
141 | GAGATATTGG | 0.99 ± 0.013
142 | GAGATCGCC | 0.982 ± 0.016
143 | GAGATCGGTG | 0.96 ± 0.023
144 | GAGATCTTTG | 0.967 ± 0.015
145 | GAGATGGTAG | 0.976 ± 0.0069
146 | GAGATGTAGG | 1 ± 0.014
147 | GAGATTGTGT | 0.9936 ± 0.0048
148 | GAGCAAAGGT | 1.04 ± 0.031
149 | GAGCAACTGA | 1.022 ± 0.0018
150 | GAGCACGGGT | 1.04 ± 0.053

Row | Sequence | switch fluorescence ratio
151 | GAGCACGTTT | 0.9963 ± 0.0072
152 | GAGCAGATTG | 1.02 ± 0.036
153 | GAGCAGCTCG | 0.9995 ± 0.0059
154 | GAGCATATTG | 1.03 ± 0.03
155 | GAGCATGAAA | 0.974 ± 0.04
156 | GAGCATTTCC | 1.1 ± 0.043
157 | GAGCATTTTT | 0.969 ± 0.029
158 | GAGCCGTATT | 1.02 ± 0.093
159 | GAGCGCTAGG | 0.9952 ± 0.0043
160 | GAGCGGATTT | 1.03 ± 0.019
161 | GAGCTAGGGG | 1.03 ± 0.041
162 | GAGCTAGTCA | 0.975 ± 0.037
163 | GAGCTGCAGT | 0.947 ± 0.047
164 | GAGCTTTCCG | 1.19 ± 0.26
165 | GAGGAAAGCG | 1.04 ± 0.089
166 | GAGGAAGATT | 1.02 ± 0.021
167 | GAGGAAGGAA | 1.04 ± 0.062
168 | GAGGAAGTAT | 0.978 ± 0.0024
169 | GAGGAAGTCG | 0.9961 ± 0.0055
170 | GAGGACGGGG | 1.01 ± 0.011
171 | GAGGAGAACG | 0.949 ± 0.049
172 | GAGGAGAGGT | 1 ± 0.015
173 | GAGGAGGGGC | 1.02 ± 0.054
174 | GAGGATCGGG | 0.992 ± 0.023
175 | GAGGATGAGG | 0.954 ± 0.0017

Row | Sequence | switch fluorescence ratio
176 | GAGGATGGTT | 0.964 ± 0.04
177 | GAGGATTAGC | 0.99 ± 0.036
178 | GAGGCAGACT | 1.23 ± 0.019
179 | GAGGCAGCGA | 1.3 ± 0.016
180 | GAGGCCGGGG | 0.9956 ± 0.0026
181 | GAGGCGGATG | 0.997 ± 0.028
182 | GAGGCGTTGC | 1.06 ± 0.05
183 | GAGGCTATCT | 1.07 ± 0.0035
184 | GAGGCTTAAG | 1.01 ± 0.019
185 | GAGGGAAAGG | 1.02 ± 0.052
186 | GAGGGAGGCA | 0.994 ± 0.019
187 | GAGGGAGGGT | 1.02 ± 0.032
188 | GAGGGATACA | 0.99 ± 0.043
189 | GAGGGCATGA | 0.993 ± 0.074
190 | GAGGGCATTT | 0.985 ± 0.02
191 | GAGGGCCGCA | 1.05 ± 0.011
192 | GAGGGCCGTG | 0.933 ± 0.043
193 | GAGGGGAATT | 0.983 ± 0.014
194 | GAGGGGACTT | 1.09 ± 0.13
195 | GAGGGGCAGG | 1.02 ± 0.074
196 | GAGGGGCCGG | 0.972 ± 0.057
197 | GAGGGGCTGT | 0.981 ± 0.038
198 | GAGGGGGCCA | 1.02 ± 0.027
199 | GAGGGGGGGT | 1.08 ± 0.34
200 | GAGGGGGTCT | 1.01 ± 0.064
